B1: HDV Ribozyme (parent)
chain: GGCCGGCAUGGUCCCAGCCUCCUCGCUGGCGCCGGCUGGGCAACAUUCCGAGGGGACCGUCCCCUCGGUAAUGGCGAAUGGGACCCA

The variants in this data set derive from B1. Briefly: self-cleavage, relative activity (ratio to wild type); higher = more cleavage; co-transcriptional.
For G50A C61A, the self-cleavage came out at 0.875.

In the case of A51G G67A, the self-cleavage was found to be 0.831.

Consider A51G G67C, for which the self-cleavage is 0.864.

As to A51G G73C, the self-cleavage was 0.575.

As for A51G G73U, the self-cleavage was 0.397.

Consider A51G G73A, for which the self-cleavage was 0.864.

Take G50A C64G: the self-cleavage was 0.404.

In the case of G50A C64U, the self-cleavage was 1.26.

Regarding G50A C64A, the self-cleavage is 0.479.

Take C49U C62G: the self-cleavage worked out at 0.665.

With C49U G67A, the self-cleavage was 0.891.

For the variant C49U G67U, the self-cleavage came out at 0.859.

For the variant G50C C75U, the self-cleavage was 0.162.

Take G50C C75A: the self-cleavage was 0.242.

Regarding G50C C75G, the self-cleavage was determined as 0.

Regarding C49G U72G, the self-cleavage was determined as 0.604.

C49U G82A: the self-cleavage amounted to 0.436.

For the variant G50U C62G, the self-cleavage is 0.344.

For the variant G50U C62A, the self-cleavage was found to be 0.602.

As to G50U C62U, the self-cleavage is 0.95.

For the variant A51G G59A, the self-cleavage was determined as 0.787.

Take G50A G55A: the self-cleavage is 0.783.

Regarding G50U A56U, the self-cleavage was 1.06.

G50U A56C: the self-cleavage was 1.18.

As for G50U A56G, the self-cleavage worked out at 0.943.

As to G50A G74U, the self-cleavage is 0.483.

With A51C G81U, the self-cleavage came out at 0.38.

Take A51C G81C: the self-cleavage is 0.193.

Regarding A51G C85A, the self-cleavage was found to be 0.673.

As to A51G G54U, the self-cleavage came out at 1.07.

On to A51G G54C, for which the self-cleavage worked out at 1.37.

For the variant A51G G54A, the self-cleavage came to 0.831.

In the case of A51G A78G, the self-cleavage was found to be 0.674.

For A51G A78C, the self-cleavage was determined as 0.318.

On to A51G A56G, for which the self-cleavage is 1.08.

As for C49U C57U, the self-cleavage was 1.18.

C49U C57G: the self-cleavage came to 1.19.

Turning to A51C C61A, the self-cleavage is 1.05.

For the variant A51C C66U, the self-cleavage is 0.974.

With G50C C62A, the self-cleavage worked out at 0.475.

As to G50C C62G, the self-cleavage stood at 0.

On to G50C C62U, for which the self-cleavage stood at 0.939.

In the case of C49U G59C, the self-cleavage worked out at 0.799.

Take C49U G59U: the self-cleavage is 0.858.

Regarding C49U G59A, the self-cleavage was 0.935.

For G50U C64U, the self-cleavage amounted to 0.901.

As for G50U C64A, the self-cleavage was found to be 0.468.

Consider G50U C61G, for which the self-cleavage is 0.67.

Regarding G50U C61U, the self-cleavage is 0.59.

Consider G50U C61A, for which the self-cleavage was found to be 0.986.

As for G50A G53A, the self-cleavage was 0.803.

On to G50A G53C, for which the self-cleavage was 0.759.

On to G50A G53U, for which the self-cleavage was 0.727.

On to G50U U69A, for which the self-cleavage is 0.872.

For the variant G50U U69G, the self-cleavage turned out to be 0.95.

For the variant C49U G81C, the self-cleavage was found to be 0.317.

As to A51G C63G, the self-cleavage was 0.538.

Turning to A51G C63U, the self-cleavage came out at 0.969.

For G50C C63U, the self-cleavage was 0.997.

As for G50C C63G, the self-cleavage amounted to 0.135.

Regarding G50C C63A, the self-cleavage was 0.305.

A51C C62U: the self-cleavage is 1.08.

As for G50C C57A, the self-cleavage turned out to be 1.04.

Consider G50C G67C, for which the self-cleavage amounted to 0.399.

Take G50C G67U: the self-cleavage worked out at 0.795.

With G50C G67A, the self-cleavage was 0.565.

C49U A78G: the self-cleavage was determined as 0.692.

Regarding G50A A51U, the self-cleavage is 0.763.

Turning to G50A A51C, the self-cleavage was 0.991.

C49U G55U: the self-cleavage amounted to 0.909.

Regarding G50U C58G, the self-cleavage is 0.89.

As to G50U C58A, the self-cleavage is 0.997.

On to A51G G76U, for which the self-cleavage was found to be 0.942.

As to C49U C86A, the self-cleavage was found to be 0.793.

For G50C C86G, the self-cleavage amounted to 0.944.

As for G50C C86U, the self-cleavage stood at 0.748.

Consider G50C C86A, for which the self-cleavage turned out to be 0.929.

For the variant G50U G81C, the self-cleavage worked out at 0.479.

G50U G81U: the self-cleavage is 0.341.

In the case of G50U G81A, the self-cleavage amounted to 0.609.

For the variant C49U A51U, the self-cleavage stood at 0.867.

C49U A51C: the self-cleavage amounted to 0.712.

For the variant G50U C85G, the self-cleavage came to 0.872.

With G50U G52A, the self-cleavage is 0.799.

G50U G52U: the self-cleavage was determined as 0.68.

As to A51G G52C, the self-cleavage was 0.789.

Take A51G C75G: the self-cleavage was 0.128.

With A51G C75A, the self-cleavage is 0.17.

For the variant G50A C85U, the self-cleavage turned out to be 0.938.

Regarding G50A C85A, the self-cleavage was 0.941.

G50C A77C: the self-cleavage was 0.302.

G50C C58A: the self-cleavage was found to be 1.

As to A51C G67A, the self-cleavage was 0.77.

With A51C G67U, the self-cleavage came out at 0.939.

With A51C C58U, the self-cleavage amounted to 0.95.

Turning to A51C C58G, the self-cleavage was found to be 1.02.

On to A51C C58A, for which the self-cleavage amounted to 0.779.

For the variant G50C C84U, the self-cleavage worked out at 0.554.

With G50U G67A, the self-cleavage stood at 0.959.

Take G50U G67C: the self-cleavage is 0.617.

As for G50C G53C, the self-cleavage stood at 0.18.

With G50U A51G, the self-cleavage was 0.956.

For G50U A83C, the self-cleavage is 0.375.

As to G50C G59C, the self-cleavage turned out to be 1.16.

Regarding G50C G59U, the self-cleavage was determined as 0.932.

For the variant G50A A87U, the self-cleavage was determined as 1.08.

For the variant G50A G68U, the self-cleavage came out at 0.767.

G50C A51U: the self-cleavage is 0.755.

In the case of G50C A51G, the self-cleavage stood at 1.07.

With G50A C66A, the self-cleavage stood at 1.18.

On to A51G C86A, for which the self-cleavage came to 1.16.

With C49U G68C, the self-cleavage came to 0.784.

With C49U G68A, the self-cleavage was determined as 0.987.

As to G50U U60A, the self-cleavage is 0.87.

With G50U U60C, the self-cleavage worked out at 0.938.

On to A51C A78G, for which the self-cleavage turned out to be 0.751.

Regarding G50A G82A, the self-cleavage came to 0.614.

As for G50A G82U, the self-cleavage came out at 0.364.

For the variant G50C C85A, the self-cleavage is 0.933.

For A51C U79G, the self-cleavage was determined as 0.415.

With A51C U79A, the self-cleavage stood at 0.959.

As for G50C G80U, the self-cleavage was 0.225.

As for G50C G80C, the self-cleavage is 0.0906.

As to G50C G68A, the self-cleavage came to 0.563.

In the case of A51G G74A, the self-cleavage came to 0.406.

Take A51G G74U: the self-cleavage came out at 0.434.

With G50U G54A, the self-cleavage was 0.85.

On to G50U G54C, for which the self-cleavage turned out to be 0.768.

With A51C U65A, the self-cleavage is 1.04.

On to A51C U65G, for which the self-cleavage was found to be 0.937.

For the variant C49U U69C, the self-cleavage was determined as 0.831.

On to G50C G54A, for which the self-cleavage was determined as 0.369.

On to C49U A87C, for which the self-cleavage is 1.05.

Consider A51G C61U, for which the self-cleavage came to 0.889.

For C49U C66A, the self-cleavage was 0.984.

Regarding A51G U69A, the self-cleavage was 1.11.

A51G U69C: the self-cleavage was 0.9.

With G50A G80C, the self-cleavage was 0.284.

Regarding G50A G80A, the self-cleavage came to 0.415.

With G50A U69A, the self-cleavage was 1.01.

Consider G50U C66U, for which the self-cleavage turned out to be 1.09.

In the case of G50U C66A, the self-cleavage is 0.901.

As for G50C G74C, the self-cleavage was determined as 0.196.

For the variant G50U G76A, the self-cleavage came out at 1.05.

As to C49U G52C, the self-cleavage is 0.866.

C49U G52A: the self-cleavage is 0.96.

As for C49U C75U, the self-cleavage stood at 0.13.

For the variant C49U C75G, the self-cleavage was found to be 0.0723.

For A51G A71U, the self-cleavage was found to be 0.629.

As for A51G A71C, the self-cleavage was 0.458.

As for G50C C61G, the self-cleavage amounted to 0.578.

For G50C C61U, the self-cleavage came to 0.749.

With G50A U65G, the self-cleavage came out at 0.95.

As for G50A U65C, the self-cleavage is 0.769.

On to C49U C63U, for which the self-cleavage is 0.958.

For G50U C75G, the self-cleavage was 0.277.

G50U C75U: the self-cleavage stood at 0.13.

For G50U C75A, the self-cleavage came out at 0.0773.

With C49U U79C, the self-cleavage is 0.47.

Turning to C49U U79G, the self-cleavage turned out to be 0.688.

In the case of C49U G80A, the self-cleavage was determined as 0.4.

With G50C G73U, the self-cleavage came out at 0.246.

On to G50C G73C, for which the self-cleavage came to 0.601.

On to A51C G82A, for which the self-cleavage came out at 0.298.

As to A51C G82C, the self-cleavage was found to be 0.534.

On to A51C G76A, for which the self-cleavage was determined as 1.08.

On to G50C C66G, for which the self-cleavage worked out at 0.912.
